From article PMC11551393 (Proceedings of the National Academy of Sciences of the …, 2024) come the findings set out here.

Data set [1] concerns the target T1, Bdf1(372-554) (in the fused complex for cryo-EM) (S. pombe, UniProt Q9Y7N0 372-554).
T1 sequence (looked up): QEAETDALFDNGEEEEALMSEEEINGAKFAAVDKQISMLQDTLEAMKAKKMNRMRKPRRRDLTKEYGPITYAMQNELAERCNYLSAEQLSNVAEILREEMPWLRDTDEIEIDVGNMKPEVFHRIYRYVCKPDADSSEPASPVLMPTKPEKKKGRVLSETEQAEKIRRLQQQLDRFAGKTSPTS
The data set is described as follows: cryo-EM structure.

Data set [2] deals with the molecule itself. The data set is described as follows: cryo-EM structure.

B1: Tdk1(211-357) (in the fused complex for cryo-EM) (domain or fragment, S. pombe, UniProt O74876 211-357, looked up)
chain: MDEWRKSTDEWRKSTDERLENLLNIVREILDVQRDMRNDLSNLTRKVDRMDMRLSRNNNMIMRSFAQPITEVPFFNGDIPDPNLPRITRIEDIDSLSEENCTRYLKGYGVSYDENDQSLWKRQLAKAVGLTAAYDESYTFSPFSSSE
Broadly, the stoichiometry N is the number of molecules, sites or subunits per partner or assembly. Consider B1, for which the binding result in data set [1] is on record as “binds”. In addition, in data set [2], the “stoichiometry N” value was 6.
